This passage reports attenuation of IL-4R activity relative to the control constructs (STAT6-luciferase reporter) results from US20130243775A1.

For this assay, the target named is interleukin-4 receptor (IL-4R) (UniProt P24394). The assay is described as follows: cell-based or functional assay.

Where only a bound is given, the exact number is not on record here.

UniProt P24394, sequence (P24394 26-825 limits assumed): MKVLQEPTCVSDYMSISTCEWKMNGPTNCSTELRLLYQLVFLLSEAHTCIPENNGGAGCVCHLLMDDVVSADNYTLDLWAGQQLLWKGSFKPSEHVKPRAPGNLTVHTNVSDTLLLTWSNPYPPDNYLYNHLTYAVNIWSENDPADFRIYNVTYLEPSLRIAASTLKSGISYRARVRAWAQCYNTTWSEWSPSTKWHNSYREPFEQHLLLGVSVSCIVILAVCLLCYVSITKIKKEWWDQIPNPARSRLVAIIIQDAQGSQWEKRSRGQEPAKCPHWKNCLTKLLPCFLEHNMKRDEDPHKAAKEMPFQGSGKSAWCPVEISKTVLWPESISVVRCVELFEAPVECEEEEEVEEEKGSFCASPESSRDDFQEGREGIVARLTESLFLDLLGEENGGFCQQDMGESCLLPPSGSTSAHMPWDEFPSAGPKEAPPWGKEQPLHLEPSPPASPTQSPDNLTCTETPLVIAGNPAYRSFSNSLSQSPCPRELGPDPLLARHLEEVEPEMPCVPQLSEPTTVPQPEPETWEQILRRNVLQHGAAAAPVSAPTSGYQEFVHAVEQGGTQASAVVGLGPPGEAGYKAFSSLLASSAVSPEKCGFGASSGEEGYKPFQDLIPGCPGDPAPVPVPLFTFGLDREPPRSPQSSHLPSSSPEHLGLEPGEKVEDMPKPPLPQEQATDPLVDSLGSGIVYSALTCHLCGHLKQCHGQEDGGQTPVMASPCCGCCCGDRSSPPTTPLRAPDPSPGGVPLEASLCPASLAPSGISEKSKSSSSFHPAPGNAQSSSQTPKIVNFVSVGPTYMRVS

B1: anti-IL-4R:anti-CD63 conjugate (streptavidin-conjugated anti-IL-4R antibody combined 1:1 with biotinylated anti-CD63 antibody MEM-259) (protein, part only; not given: anti-CD63 antibody, constant regions, part only)
VH: EVQLVESGGGVVQPGRSLRLSCVASGFTFSDYGMHWVRQAPGKGLEWVAVIWYDGSIKYFRDSVKGRFTISRDNSKNTLYLQMNSLRVEDTAHYYCAKESSSWYFYHGLDVWGQGTMVTVSS
VL: EIVMTQSPLSLPVSPGEPASISCRSNQSLLHSNGNNYLAWYLQKPGQSPHLLIYLGSNRASGVPDRFSGSGSGTDFTLKISRVEAGDVGTYFCMQSLQAPPFTFGPGTKVEIKR
modifications: antibody is streptavidin-conjugated (site not stated)
Regarding B1, the attenuation of IL-4R activity relative to the control constructs (STAT6-luciferase reporter) was over 10%.
